Measurements from paper PMC7117682 (2020).

Target: CD47 naturally expressed on CD47(+) Jurkat T lymphoma cells (human (endogenous in Jurkat), UniProt Q08722 19-323)
Test: FACS

Chain of CD47 naturally expressed on CD47(+) Jurkat T lymphoma cells (Q08722 19-323): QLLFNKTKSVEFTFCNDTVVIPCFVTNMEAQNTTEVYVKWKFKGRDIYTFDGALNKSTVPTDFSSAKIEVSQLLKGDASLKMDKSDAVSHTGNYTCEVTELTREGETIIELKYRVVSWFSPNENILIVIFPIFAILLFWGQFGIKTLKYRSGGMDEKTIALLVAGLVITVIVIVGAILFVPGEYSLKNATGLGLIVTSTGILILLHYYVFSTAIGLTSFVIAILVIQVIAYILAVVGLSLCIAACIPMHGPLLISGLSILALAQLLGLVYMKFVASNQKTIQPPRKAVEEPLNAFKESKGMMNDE

EC50: 2 µM
B1: SIRPα-Avi-biotin (soluble, biotin-conjugated SIRPα d1 construct; allelic variant not stated for the experiment) (domain or fragment)
chain: EELQVIQPDKSVLVAAGETATLRCTATSLIPVGPIQWFRGAGPGRELIYNQKEGHFPRVTTVSDLTKRNNMDFSIRIGNITPADAGTYYCVKFRKGSPDDVEFKSG
modifications: biotin (biotin-conjugated, SIRPα-Avi-biotin)
